# Laboratory results as given in IntAct's records for PubMed 25772236.
# B1: E1B 55 kDa protein (Human adenovirus C serotype 5 (HAdV-5)), P03243-1 (parent)
# chain: MERRNPSERGVPAGFSGHASVESGCETQESPATVVFRPPGDNTDGGAAAAAGGSQAAAAGAEPMEPESRPGPSGMNVVQVAELYPELRRILTITEDGQGLKGVKRERGACEATEEARNLAFSLMTRHRPECITFQQIKDNCANELDLLAQKYSIEQLTTYWLQPGDDFEEAIRVYAKVALRPDCKYKISKLVNIRNCCYISGNGAEVEIDTEDRVAFRCSMINMWPGVLGMDGVVIMNVRFTGPNFSGTVFLANTNLILHGVSFYGFNNTCVEAWTDVRVRGCAFYCCWKGVVCRPKSRASIKKCLFERCTLGILSEGNSRVRHNVASDCGCFMLVKSVAVIKHNMVCGNCEDRASQMLTCSDGNCHLLKTIHVASHSRKAWPVFEHNILTRCSLHLGNRRGVFLPYQCNLSHTKILLEPESMSKVNLNGVFDMTMKIWKVLRYDETRTRCRPCECGGKHIRNQPVMLDVTEELRPDHLVLACTRAEFGSSDEDTD
# B2: E1B 55 kDa protein (Human adenovirus C serotype 5 (HAdV-5)), P03243-1 (parent)
# chain: B1 chain
# partner: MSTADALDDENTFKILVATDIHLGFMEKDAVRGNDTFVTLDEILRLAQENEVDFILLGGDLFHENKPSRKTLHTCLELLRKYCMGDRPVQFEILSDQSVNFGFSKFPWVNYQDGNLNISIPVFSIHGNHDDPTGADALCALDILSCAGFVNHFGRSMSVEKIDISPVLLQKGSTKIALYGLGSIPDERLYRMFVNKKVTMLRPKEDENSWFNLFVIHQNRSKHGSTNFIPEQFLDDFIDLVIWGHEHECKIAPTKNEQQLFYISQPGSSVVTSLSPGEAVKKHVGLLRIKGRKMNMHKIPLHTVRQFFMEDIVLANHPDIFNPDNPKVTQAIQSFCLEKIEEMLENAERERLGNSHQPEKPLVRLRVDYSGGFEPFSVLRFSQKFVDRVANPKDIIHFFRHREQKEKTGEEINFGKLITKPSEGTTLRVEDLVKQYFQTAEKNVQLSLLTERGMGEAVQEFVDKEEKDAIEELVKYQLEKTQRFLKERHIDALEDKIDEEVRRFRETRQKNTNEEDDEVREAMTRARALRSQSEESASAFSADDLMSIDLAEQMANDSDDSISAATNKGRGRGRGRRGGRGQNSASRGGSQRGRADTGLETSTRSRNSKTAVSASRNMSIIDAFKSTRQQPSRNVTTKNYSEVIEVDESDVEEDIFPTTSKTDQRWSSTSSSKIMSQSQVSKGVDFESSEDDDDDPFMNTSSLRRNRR
# Variants of: B1
# Conditions: with PML
row,Variant,effect of a mutation on the interaction
1,K104R,decreasing interaction strength
2,R443A,decreasing interaction strength

# Variants of: B1
# Conditions: with PML
# Remark: another data set of the same source
row,Variant,effect of a mutation on the interaction
1,R448A;T449A;R450A,disrupting interaction strength

# Variants of: B1
# Conditions: with DAXX
row,Variant,effect of a mutation on the interaction
1,R443A,decreasing interaction strength

# Variants of: B2
# Conditions: with mre11_human MRE11, P49959
row,Variant,effect of a mutation on the interaction
1,K104R,decreasing interaction strength
